Measurements taken from paper PMC10115415, “RNA binding induces an allosteric switch in Cyp33 to repress MLL1-mediated transcription”.

Legend:
Conditions in all cases: protein: recombinant; tags: AGH N-terminal after intein cleavage
Cyp33 RRMΔα = Cyp33 RRMΔα (human, UniProt Q9UNP9 1-90); experiment: NMR structure and titration; single register, larger shifts than with a3; NMR titrations: 20 mM KHPO4 pH 7, 40 mM KCl, 1 mM DTT, 289.15 K as printed (table S2 says 298.15 K for Kd); structures of complexes: 40 mM KCl, 20 mM KH2PO4 pH
Cyp33 RRM [1] = target: T1, Cyp33 RRM (human, UniProt Q9UNP9 1-114); experiment: NMR titration; weak, fast exchange; NMR titrations: 20 mM KHPO4 pH 7, 40 mM KCl, 1 mM DTT, 289.15 K as printed (table S2 says 298.15 K for Kd); structures of complexes: 40 mM KCl, 20 mM KH2PO4 pH
Cyp33-K (RRM) = Cyp33-K (RRM) (human, UniProt Q9UNP9 1-114, K83A); experiment: NMR titration; NMR titrations: 20 mM KHPO4 pH 7, 40 mM KCl, 1 mM DTT, 289.15 K as printed (table S2 says 298.15 K for Kd); structures of complexes: 40 mM KCl, 20 mM KH2PO4 pH
Cyp33-RK (RRM) = Cyp33-RK (RRM) (human, UniProt Q9UNP9 1-114, R86A;K88A); experiment: as above
Cyp33 RRM [2] = target: T1, Cyp33 RRM; experiment: as above
Cyp33 RRM [3] = target: T1, Cyp33 RRM; experiment: NMR structure and titration; low affinity, multiple registers; NMR titrations: 20 mM KHPO4 pH 7, 40 mM KCl, 1 mM DTT, 289.15 K as printed (table S2 says 298.15 K for Kd); structures of complexes: 40 mM KCl, 20 mM KH2PO4 pH

T1 sequence (Q9UNP9 1-114): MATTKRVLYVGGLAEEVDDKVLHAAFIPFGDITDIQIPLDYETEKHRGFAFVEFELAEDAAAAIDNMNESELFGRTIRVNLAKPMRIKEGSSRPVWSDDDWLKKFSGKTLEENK
Sequence of Cyp33-K (RRM) (Q9UNP9 1-114 K83A): as the sequence (Q9UNP9 1-114) above, with K83A counted along it
Sequence of Cyp33-RK (RRM) (Q9UNP9 1-114 R86A/K88A): as the sequence (Q9UNP9 1-114) above, with R86A, K88A counted along it
Sequence of Cyp33 RRMΔα (Q9UNP9 1-90, stated change not applied): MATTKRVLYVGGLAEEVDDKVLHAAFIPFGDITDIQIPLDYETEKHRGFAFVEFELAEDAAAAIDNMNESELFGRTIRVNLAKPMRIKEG

B1: UAAUGUCG RNA (ssRNA)
RNA: UAAUGUCG
What does the source list for B1?
binding result (Cyp33 RRMΔα): binds; binding result (Cyp33 RRM [1]): binds

B2: UAAUGU RNA (ssRNA)
RNA: UAAUGU
With B2 as the binder, how does the Kd (Cyp33-K (RRM)) read?
Its Kd is ~1800 µM.

And the Kd (Cyp33-RK (RRM))?
The Kd was ~2000 µM.

And the Kd (Cyp33 RRM [2])?
The Kd was ~300 µM.

B3: AAUAAA RNA (poly-A signal) (ssRNA)
RNA: AAUAAA
Does B3 bind (Cyp33 RRM [3])?
Result: binds
